Data: patent US20200002421A1, “ANTI-B7-H3 ANTIBODIES AND ANTIBODY DRUG CONJUGATES” (AbbVie Inc., priority 2016, published 2020)
Residue numbers refer to the chain shown, from its start.

B1: Ab13: mouse hybridoma anti-B7-H3 monoclonal antibody, mouse IgG1/k (antibody, V domains shown)
VH: DVQLQESGPDLVKPSQSLSLTCTVTGYSITSGYSWHWIRQFPGNKLEWMGYIHSSGSTNYNPSLKSRISINRDTSKNQFFLQLNSVTTEDTATYYCAGYDDYFEYWGQGTTLTVSS
VL: DIVMTQSQKFMSTSVGDRVSVTCKASQNVGFNVAWYQQKPGQSPKALIYSASYRYSGVPDRFTGSGSGTDFTLTISNVQSEDLAEYFCQQYNSYPFTFGSGTKLEIK
B2: Ab18: mouse hybridoma anti-B7-H3 monoclonal antibody, mouse IgG1/k (antibody, V domains shown)
VH: QVQLQQSAAELARPGASVKMSCKASGYSFTSYTIHWVKQRPGQGLEWIGYINPNSRNTDYNQKFKDETTLTADRSSSTAYMQLISLTSEDSAVYYCARYSGSTPYWYFDVWGAGTTVTVSS
VL: QIVLTQSPAILSASPGEKVTMTCRASSSVSYMNWYQQKPGSSPKPWIYATSNLASGVPARFSVSVSGTSHSLTISRVEAEDAATYYCQQWSSNPLTFGAGTKLELK
B3: Ab17: mouse hybridoma anti-B7-H3 monoclonal antibody, mouse IgG2b/k (antibody, V domains shown)
VH: EVKLVESGGGLVQPGGSLKLSCAASGFTFSSYIMSWVRQTPEKRLEWVASIVSSNITYYPDSMKGRFTISRDNARNILYLQMSSLKSEDTAMYYCARSGTRAWFAYWGQGTLVTVSA
VL: DIVLTQSPASLAVSLGQRATISCRASKSVSTSAYSYMHWYQQKPGQPPKLLIYLASNLESGVPARFSGSGSGTDFTLNIHPVEEEDAATYYCQHSRELPYTFGGGTKLEIK
B4: Ab4: mouse hybridoma anti-B7-H3 monoclonal antibody, mouse IgG2b/k (antibody, V domains shown)
VH: QVQLQQPGAELVKPGASVKLSCKASGYSFTSYWMHWVKQRPGQGLEWIGMIHPNSGSNNYNEKFKSKATLTVDKSSNTAYMQLSSLTSEDSAVYYCARRLGLHFDYWGQGTTLTVSS
VL: DIVMTQSQKFMSTPVGDRVSITCKASQNVGTAVAWYQQKPGQSPKLLIYSASNRYTGVPDRFTGSGSGTDFTLTISNMQSEDLADYFCQQYSSYPYTFGGGTKLEIK
B5: Ab14: mouse hybridoma anti-B7-H3 monoclonal antibody, mouse IgG1/k (antibody, V domains shown)
VH: EVKLVESGGGLVKPGGSLKLSCAASGFTFSSYGMSWVRQTPEKRLEWVATISGGGTNTYYPDSVEGRFTISRDNAKNFLYLQMSSLRSEDTALYYCARHYGSQTMDYWGQGTSVTVSS
VL: DIQMTQSPASLSASVGETVTITCRTSGNIHNYLTWYQQKQGKSPQLLVYNAKTLADGVPSRFSGSGSGTQFSLKINSLQPEDFGSYYCQHFWSIMWTFGGGTKLEIK
B6: Ab3: mouse hybridoma anti-B7-H3 monoclonal antibody, mouse IgG1/k (antibody, V domains shown)
VH: QVQLQQPGAELVKPGASVKLSCKASGYTFSSYWMHWVKQRPGQGLEWIGLIHPDSGSTNYNEMFKNKATLTVDRSSSTAYVQLSSLTSEDSAVYFCAGGGRLYFDYWGQGTTLTVSS
VL: DVVMTQTPLSLPVSLGDQASISCRSSQSLVHSNGDTYLRWYLQKPGQSPKLLIYKVSNRFSGVPDRFSGSGSGTDFTLKITRVEAEDLGVYFCSQSTHVPYTFGGGTKLEIK
B7: Ab2: mouse hybridoma anti-B7-H3 monoclonal antibody, mouse IgG1/k (antibody, V domains shown)
VH: QVQLQQPGAELVKPGASVKLSCKASGYTFTSYWMHWVKQRPGQGLEWIGMIHPDSGTTNYNEKFRSKATLTVDKSSSTAYMQLSSLTSEDSAVYYCAVYYGSTYWYFDVWGTGTTVTVSS
VL: B6 VL with S20Y, S32I, D35N, R39H, L42R, T81S, V99F, Y101F, G105S
B8: Ab10: mouse hybridoma anti-B7-H3 monoclonal antibody, mouse IgG2b/k (antibody, V domains shown)
VH: DVQLQESGPGLVKPSQSLSLTCTVTGYSITSDYAWNWIRQFPGNRLEWMGHINYSGITNYNPSLKSRISITRDTSKNQFFLQLYSVTTEDTATYFCARRSLFYYYGSSLYAMDYWGQGTSVTVSS
VL: B6 VL with T7S, L9F, D35N, R39H, T81S, Y101W
B9: Ab5: mouse hybridoma anti-B7-H3 monoclonal antibody, mouse IgG1/k (antibody, V domains shown)
VH: QVQLQQPGDELVKPGASVKLSCKTSGYTFTTDWMHWVKQRPGQGLEWIGMIHPNSGTTNYNEKFKSKAALTVDKSSSTACMQLSSLTSEDSAVYYCARSYWKWYFDVWGTGTTVTVSS
VL: QIVLTQSPAIMSASLGEEITLTCSASSSVSYMHWYQQKSGTSPKLLIYSTSNLASGVPSRFSGSGSGTFYSLTISSVEAEDSADYYCHQWTSYMYTFGGGTKLEIK
B10: Ab16: mouse hybridoma anti-B7-H3 monoclonal antibody, mouse IgG1/k (antibody, V domains shown)
VH: EVKLLESGGGLVQPGGSLKLSCAASGFDFSRYWMSWVRQAPGKGLEWIGEINPDSSTINYTPSLKDKFIISRDNAKNTLYLQMSKVRSEDTALYYCARPGFGNYIYAMDYWGQGTSVTVSS
VL: DIQMTQTTSSLSASLGDRVTINCRASQDISNFLNWYQQKPDGTVKLLIYYTSRLYLGVPSRFSGSGSGTDYSLTISNLEQEDIATYFCQQGNTLPPTFGGGTKLEIK
B11: Ab6: mouse hybridoma anti-B7-H3 monoclonal antibody, mouse IgG1/k (antibody, V domains shown)
VH: QVQLQQSGAELMKPGASVKISCKATGYTFSRYWIEWVKQRPGHGLEWIGEILPGSGSTNYNEKFKGKATFTADTSSNTAYMQVSSLTSEDSAVHYCARRGYGYVPYALDYWGQGTSVTVSS
VL: B10 VL with D1E, N22S, F32S, K45N, L56S, P96Y

Key:
huB7-H3 = molecular target: T1, huB7-H3 (Homo sapiens, UniProt Q5ZPR3); experiment: Biacore T200 SPR binding kinetics, mAb capture; settings: Table 3
T1 construct: His tag (6xHis) (C)
T1 sequence (Q5ZPR3 with tags, fused parts or gaps): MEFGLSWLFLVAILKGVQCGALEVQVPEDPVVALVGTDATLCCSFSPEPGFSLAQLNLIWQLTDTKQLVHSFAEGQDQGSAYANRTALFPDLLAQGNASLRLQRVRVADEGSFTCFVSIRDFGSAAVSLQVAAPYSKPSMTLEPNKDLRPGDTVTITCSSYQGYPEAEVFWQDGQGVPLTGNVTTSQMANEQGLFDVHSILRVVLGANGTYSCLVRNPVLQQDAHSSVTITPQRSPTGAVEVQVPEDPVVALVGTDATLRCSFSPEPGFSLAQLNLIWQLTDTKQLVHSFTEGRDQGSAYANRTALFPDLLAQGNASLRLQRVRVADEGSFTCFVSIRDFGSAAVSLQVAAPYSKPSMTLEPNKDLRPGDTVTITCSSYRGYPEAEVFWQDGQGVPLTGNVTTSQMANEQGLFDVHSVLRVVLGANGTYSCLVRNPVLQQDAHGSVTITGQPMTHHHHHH
Protocol: The binding affinity of the purified anti-B7-H3 monoclonal antibodies was determined by surface […]. […] The binding kinetics were derived from SPR measurements using a Biacore T200 instrument and a mAb capture approach (as described in the materials and methods below).
Biacore T200 SPR instruments were used to measure the binding kinetics of human B7-H3 (4Ig-B7-H3 variant) (analyte) binding to various mAbs (ligands). The assay format was Fc-based capture via immobilized anti-mouse (Fc) (Pierce 31170) or immobilized anti-human (Fc) (Pierce 31125). A standard amine coupling protocol was employed to immobilize the capture reagents via primary amines to the carboxy-methyl (CM) dextran surface of CM5 sensorchips (Biacore); capture antibodies were coupled to a level of approximately 5000 RU. For binding kinetic measurements the assay buffer was HBS-EP+(Biacore): 10 mM Hepes, pH7.4, 150 mM NaCl, 3 mM EDTA, 0.05% polysorbate 20. During the assay, all measurements were referenced against the capture surface alone. Each assay cycle consisted of the following steps: 1) Capture of ligand to approximately 50 RU; 2) Analyte injection over both reference and test surface, 240 μL at 80 μL/min, after which the dissociation was monitored for 900 seconds at 80 μL/min; 3) Regeneration of capture surface with low pH glycine. For kinetic determinations analyte injections were 3-point, 9-fold dilution series of 900 nM, 100 nM and 11.11 nM, buffer only injections were included for secondary referencing. Data were processed and fit to a 1:1 binding model using Biacore T200 Evaluation Software to determine the binding kinetic rate constants, ka (on-rate) and kd (off-rate), and the equilibrium dissociation constant (affinity, KD).

human B7-H3 = molecular target: T2, human B7-H3 (Homo sapiens, UniProt Q5ZPR3); experiment: Epitope grouping by pair-wise Biacore SPR binding; settings: simultaneous binding assay, FIG. 1
T2 construct: His tag (6xHis) (C)
T2 sequence (Q5ZPR3 with tags, fused parts or gaps): T1 sequence (Q5ZPR3 with tags, fused parts or gaps)
From the text: Pair-wise binding assays performed on Biacore T200 SPR instruments were used to determine the relative epitope grouping for the murine anti-B7-H3 mAbs as described in the methods below. […] Epitope groups are represented as individual ovals, some of which overlap with each other. Antibodies in different epitope groups can bind to B7-H3 simultaneously and likely bind to different epitopes while antibodies within a given epitope group cannot bind to B7-H3 simultaneously and likely bind to overlapping epitopes. The grouping information was derived from a simultaneous binding assay as described in materials and methods. Ab3, Ab4, Ab5, Abl 1, Ab12, and Ab8 groupings were ambiguous
Pair-wise binding assays performed on Biacore T200 SPR instruments were used to determine the relative epitope grouping for a series of anti-B7-H3 mAbs. The assay format was Fc-based capture via immobilized anti-mouse (Fc) (Pierce 31170) or immobilized anti-human (Fc) (Pierce 31125). A standard amine coupling protocol was employed to immobilize the capture reagents via primary amines to the carboxy-methyl (CM) dextran surface of CM5 sensorchips (Biacore); capture antibodies were coupled to a level of approximately 2000 RU. Epitope grouping measurements were done at 12° C. (low temperature allows for grouping information on fast off-rate mAbs), the assay buffer was HBS-EP+(Biacore): 10 mM Hepes, pH7.4, 150 mM NaCl, 3 mM EDTA, 0.05% polysorbate 20. Each assay cycle consisted of the following steps in a four flowcell system: 1) separate test mAbs were captured in flowcells 2, 3 & 4 (flowcell 1 was reference, no test mAb); 2) all 4 flowcells were then blocked by injection with isotype control mAb or isotype mAb cocktail at 50 μg/mL; 3) all 4 flowcells were then injected with antigen or buffer only (buffer only is for double referencing, done for each mAb pair individually); 4) all 4 flowcells were then injected with 2nd test mAb at 10 μg/mL; 5) all 4 flowcells were then regenerated with glycine, pH1.5. The assay was done for each test mAb pair in reciprocal orientations. Simultaneous binding was evaluated examining the ratio of the 2nd test mAb response to the Ag response (RUmAb2/RUAg); if this ratio was equal to or greater than 0.2 the interaction was scored as a simultaneous binder. From this pair-wise binding assay data a “venn” style diagram was constructed manually to depict relative epitope groupings.

Row | Molecule | huB7-H3 ka(1/Ms) (huB7-H3) | epitope grouping (human B7-H3)
1 | B1 | 330000 M⁻¹ s⁻¹ | 
2 | B2 | 210000 M⁻¹ s⁻¹ | 
3 | B3 | 540000 M⁻¹ s⁻¹ | 
4 | B4 | 690000 M⁻¹ s⁻¹ | ambiguous
5 | B5 | 110000 M⁻¹ s⁻¹ | 
6 | B6 | 520000 M⁻¹ s⁻¹ | ambiguous
7 | B7 | 120000 M⁻¹ s⁻¹ | 
8 | B8 | 41000 M⁻¹ s⁻¹ | 
9 | B9 | 1.3e+06 M⁻¹ s⁻¹ | ambiguous
10 | B10 | 140000 M⁻¹ s⁻¹ | 
11 | B11 | 12000 M⁻¹ s⁻¹ | 
